Reference: PMC12333349, “Endogenous Aquaporin‑0 Lipid Binding in Ocular Lens Tissue via Native Mass Spectrometry” (Journal of the American Society for Mass Spectrometry, 2025)

Target: the molecule itself
Assay: native MS; crude bovine lens cortex or nucleus membrane preparation, solubilised in 1% OG, exchanged into 200 mM ammonium acetate, 2x CMC C8E4; static nanospray, Q Exactive UHMR; HCD at 200 V fragmented the tetramer mainly into monomers

B1: Aquaporin-0 (natural protein, bovine, UniProt P06624 1-263, looked up)
chain: MWELRSASFWRAICAEFFASLFYVFFGLGASLRWAPGPLHVLQVALAFGLALATLVQAVGHISGAHVNPAVTFAFLVGSQMSLLRAICYMVAQLLGAVAGAAVLYSVTPPAVRGNLALNTLHPGVSVGQATIVEIFLTLQFVLCIFATYDERRNGRLGSVALAVGFSLTLGHLFGMYYTGAGMNPARSFAPAILTRNFTNHWVYWVGPVIGAGLGSLLYDFLLFPRLKSVSERLSILKGSRPSESNGQPEVTGEPVELKTQAL
notes: Aquaporin-0 (AQP0), bovine lens; the most abundant species is full-length AQP0, tetramer average mass 112,898 Da; Lower-abundance singly and doubly phosphorylated tetramers were also detected; Samples were in 200 mM ammonium acetate with 2x CMC C8E4 (residual OG possible); also called AQP0; crude AQP0; source: endogenous, bovine lens cortex and nucleus: crude urea-washed membrane pellets …
For B1, the “stoichiometry N” value was 4.
